Test [1] has as its target T1, human Scribble PDZ3 domain (1005-1094) (human, UniProt Q14160 1005-1094).
T1 sequence (looked up): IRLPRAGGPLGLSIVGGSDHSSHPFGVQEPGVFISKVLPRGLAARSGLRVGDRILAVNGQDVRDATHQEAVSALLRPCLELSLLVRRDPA
Briefly: ITC. In general terms: Isothermal titration calorimetry measures the heat released or taken up as one component is titrated into another.

In test [2] the target is human Scribble PDZ1 domain (728-815) (human, UniProt Q14160 728-815). Briefly: ITC.
Sequence of human Scribble PDZ1 domain (728-815) (Q14160 728-815): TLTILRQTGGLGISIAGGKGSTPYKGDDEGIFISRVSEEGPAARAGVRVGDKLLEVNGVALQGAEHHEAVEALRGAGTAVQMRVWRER

Consider WRSRRRETAL [HPV33 E6 C-terminal PBM 10-mer peptide (WRSRRRETAL)], for which the binding result in test [1] and in test [2] was “binds” throughout. Usually Kd stands for the equilibrium constant for the complex coming apart. High values mean weaker binding, low ones tighter binding. In test [2], SSRTRRETQL [HPV16 E6 C-terminal PBM 10-mer peptide (SSRTRRETQL)] came in with a Kd of 9.4 µM.

As to RTRQRNETQV [HPV51 E6 C-terminal PBM 10-mer peptide (RTRQRNETQV)], the binding result in test [1] and in test [2] was “binds” each time. As to RRRIRRETQV [HPV70 E6 C-terminal PBM 10-mer peptide (RRRIRRETQV)], the binding result in test [1] and in test [2] was “binds” each time. As for WRRPRTETQV [HPV31 E6 C-terminal PBM 10-mer peptide (WRRPRTETQV)], the binding result in test [1] and in test [2] was “binds” throughout.

For the molecule RLQRRRETQV [HPV18 E6 C-terminal PBM 10-mer peptide (RLQRRRETQV)], the binding result in test [1] was “binds”. TSRQATESTV [HPV66 E6 C-terminal PBM 10-mer peptide (TSRQATESTV)]: the binding result in test [1] and in test [2] was “binds” throughout.

(Values after doi:10.1101/2022.10.12.511839 (bioRxiv, 2022).)
